One assay addresses T1, human VEGF (human, UniProt P15692-4 27-191).
T1 construct: also called VEGF165
Briefly: receptor binding assay, dAb cross-linked by anti-Myc tag antibody.

The next assay concerns the target T2, mouse VEGF (mouse, UniProt Q00731-2 27-190, limits assumed).
T2 sequence (looked up): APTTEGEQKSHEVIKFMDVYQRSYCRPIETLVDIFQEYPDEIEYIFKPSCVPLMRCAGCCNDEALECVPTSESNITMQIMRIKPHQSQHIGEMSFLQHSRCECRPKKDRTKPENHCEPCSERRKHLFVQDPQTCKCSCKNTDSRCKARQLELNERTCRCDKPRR
Described as above.

B1: TAR15-26 (other)
VH: EVQLLESGGGLVQPGGSLRLSCAASGFTFGAYPMMWVRQAPGKGLEWVSEISPSGSYTYYADSVKGRFTISRDNSKNTLYLQMNSLRAEDTAVYYCAKDPRKFDYWGQGTLVTVSS
notes: VH dAb; carries a Myc tag in the cross-linked assay
Broadly, the IC50 is the concentration that gives 50% inhibition. A low value points to greater potency in that assay. Consider B1, for which the IC50 with human VEGF amounted to 3 nM; in the assay with mouse VEGF it was 10 nM.

Source of the values: patent US20100081792A1 (published 2010).
